This is an account of results in patent US20090029376.

Holding throughout (test): cleavage_in_vitro
The test system of data set [1] is T1, SapI (Saccharopolyspora sp.).
T1 sequence: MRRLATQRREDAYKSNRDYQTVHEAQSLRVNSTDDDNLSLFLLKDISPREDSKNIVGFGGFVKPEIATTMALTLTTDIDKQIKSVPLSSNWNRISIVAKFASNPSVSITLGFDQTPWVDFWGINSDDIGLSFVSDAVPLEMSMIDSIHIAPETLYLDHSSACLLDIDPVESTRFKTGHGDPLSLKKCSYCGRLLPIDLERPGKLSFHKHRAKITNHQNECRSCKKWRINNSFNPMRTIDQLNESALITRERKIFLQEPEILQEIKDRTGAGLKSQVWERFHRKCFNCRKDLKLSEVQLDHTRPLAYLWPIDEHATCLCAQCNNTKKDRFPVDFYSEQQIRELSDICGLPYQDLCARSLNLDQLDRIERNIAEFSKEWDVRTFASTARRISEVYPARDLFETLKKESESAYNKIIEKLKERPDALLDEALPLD
The note with it: NEB4, 37 C.

In data set [2] the test system is T2, BspQI (Bacillus sphaericus).
T2 sequence: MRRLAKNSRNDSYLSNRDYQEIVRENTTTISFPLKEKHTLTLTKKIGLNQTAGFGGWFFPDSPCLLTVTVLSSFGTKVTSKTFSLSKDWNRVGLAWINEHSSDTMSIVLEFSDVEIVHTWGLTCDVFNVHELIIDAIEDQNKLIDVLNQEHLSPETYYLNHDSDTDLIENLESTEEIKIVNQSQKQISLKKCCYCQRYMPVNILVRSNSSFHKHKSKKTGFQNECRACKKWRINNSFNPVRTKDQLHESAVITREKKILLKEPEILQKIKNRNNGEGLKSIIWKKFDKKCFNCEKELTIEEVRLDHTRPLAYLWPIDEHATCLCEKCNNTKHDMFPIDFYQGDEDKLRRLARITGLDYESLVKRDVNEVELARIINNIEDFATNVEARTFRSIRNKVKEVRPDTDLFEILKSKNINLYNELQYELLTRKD
The note with it: NEB4, 50 C.

In data set [3] the test system is T3, BstXI-HF N65A (Bacillus stearothermophilus).
T3 sequence: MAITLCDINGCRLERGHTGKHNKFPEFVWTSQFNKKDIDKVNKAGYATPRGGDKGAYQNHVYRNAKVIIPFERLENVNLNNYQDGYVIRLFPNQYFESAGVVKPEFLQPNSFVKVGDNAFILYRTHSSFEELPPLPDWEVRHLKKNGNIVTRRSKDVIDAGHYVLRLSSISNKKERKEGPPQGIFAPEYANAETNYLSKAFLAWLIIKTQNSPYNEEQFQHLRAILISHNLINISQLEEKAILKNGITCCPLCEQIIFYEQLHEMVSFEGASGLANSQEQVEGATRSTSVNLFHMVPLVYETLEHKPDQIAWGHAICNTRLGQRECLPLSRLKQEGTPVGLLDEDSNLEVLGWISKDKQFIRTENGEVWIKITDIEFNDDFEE
The note with it: NEB4, 55 C.

The subject of data set [4] is T4, BsmBI-HF N185Y/R232A (Bacillus stearothermophilus).
T4 sequence: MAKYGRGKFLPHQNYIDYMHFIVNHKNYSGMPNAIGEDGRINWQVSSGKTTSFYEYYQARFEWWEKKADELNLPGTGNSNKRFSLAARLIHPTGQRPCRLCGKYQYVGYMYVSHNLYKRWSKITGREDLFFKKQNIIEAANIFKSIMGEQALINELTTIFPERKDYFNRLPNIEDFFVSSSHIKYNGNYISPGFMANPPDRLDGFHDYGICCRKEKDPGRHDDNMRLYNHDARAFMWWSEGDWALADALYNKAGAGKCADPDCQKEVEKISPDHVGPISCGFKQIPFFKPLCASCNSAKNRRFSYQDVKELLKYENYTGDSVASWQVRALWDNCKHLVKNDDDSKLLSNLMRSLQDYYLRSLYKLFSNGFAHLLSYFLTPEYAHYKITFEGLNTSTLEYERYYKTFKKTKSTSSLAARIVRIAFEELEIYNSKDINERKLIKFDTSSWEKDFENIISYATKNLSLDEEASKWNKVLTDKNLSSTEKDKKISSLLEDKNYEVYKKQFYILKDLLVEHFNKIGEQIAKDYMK
The note with it: NEB4, 55 C.

In data set [5] the test system is T5, NcoI (Nocardia corallina).
T5 sequence: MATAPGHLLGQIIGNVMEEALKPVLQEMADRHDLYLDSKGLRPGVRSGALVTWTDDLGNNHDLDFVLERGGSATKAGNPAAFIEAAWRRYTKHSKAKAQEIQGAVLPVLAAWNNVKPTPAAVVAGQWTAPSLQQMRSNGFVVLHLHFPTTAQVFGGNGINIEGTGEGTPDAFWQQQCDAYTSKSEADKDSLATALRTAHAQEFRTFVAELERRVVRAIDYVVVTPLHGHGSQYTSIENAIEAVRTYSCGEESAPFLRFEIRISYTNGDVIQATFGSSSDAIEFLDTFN
The note with it: NEB4, 37 C.

Some results are limits rather than exact numbers.

For the substance lambda phage DNA, the activity (fidelity index) was 16 in data set [1]; 4 in data set [2]; > 250 in data set [3]; > 500 in data set [4]; 32 in data set [5].
